Source: the supplement of paper PMC10567573

B1: USP39 (parent)
chain: TLSEAYIQIWKRRDNDETNQQGA
B2: HDAC6 (parent)
chain: DLMETTQYMNEGELRVLADTYDSV

Variants of: B1
Assay: protein stability index of a GFP-peptide fusion (GPS, HEK-293T) (PSI 1-6); higher = more stable
Conditions: c terminus: native
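Further: lentivirally expressed fusions sorted by FACS into six bins by GFP to DsRed ratio, PSI derived from sequencing read proportions per bin multiplied by bin number.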

Protein stability index, by site and new letter:
Q8: A 2.92; E 3; L 1.42; G 2.22
D16: W 3.13; T 1.98; L 2.61; A 2.1; C 2.54; M 2.93; K 2.32
T1: H 1.99; D 2.35; Q 2.32; S 2.54; A 2.37; N 2.99; K 2.36
I7: A 2.93; K 3.71; W 3.49; E 3.69; L 2.44; H 3.07; T 2.53; D 3.29; P 3.23; Q 3.2
Q20: R 2.35; W 2.17; A 2.51; G 2.68; V 1.73; Y 2.4; I 1.74; H 1.58; N 3.41; T 3.77; F 2.02; P 1
A5: N 2.6; I 2.02; D 3.45; C 3.14; W 2.18; P 3.69; K 2.2; T 2.38; Q 2.69; V 2.93; S 2.31
T18: W 2.11; D 1.95; Q 1.61; E 2.56; S 1.89; G 2.57
W10: H 2.9; T 2.92; N 2.85
N19: S 2.9; D 4.38; T 3.51; F 2.99; W 2.61; E 3.9; V 2.32
I9: M 2.5; C 2.12; V 2.67; H 2.68; Q 3.23; A 2.66; T 2.7; E 3.11
Q21: R 1.53; H 2.05; S 2.96; A 2.96; T 3.59; K 3.59
L2: W 2.63; R 2.85; C 2.32; G 3.77; S 3.08; F 2.51; A 2.8; H 3.1; E 3.08
S3: Q 2.38; T 2.65; K 2.68; W 2.32; H 2.5
R12: D 3.2; K 2.89; C 2; A 2.15; I 3.09; F 2.61; G 3.15; W 1.18; T 2.65; Y 1.81; H 1.96
A23: N 4.51; R 2.59; P 4.07; E 4.22; I 3.76; L 3.89; H 4.18
R13: H 2.43; C 2.06; Q 4.3; I 2.52
K11: S 3.78; C 3.3; I 2.21; P 1.72; Y 1.44; M 2.63
N15: L 1.92; H 3.1; S 1.88; R 2.24; A 2.38; E 3.18
G22: E 4.79; D 3.84; C 2.83; A 3.77; Y 3.04; M 3.1; K 4.09; L 3.26; N 4.12
E4: W 1.73; N 2.05; M 2.09; T 2.74; F 2.09; I 1.96; A 2.46; H 2.28
E17: F 1.99; A 1.8; D 2.79; V 1.5; W 2.35
Y6: T 3.32; E 2.32; F 2.9; P 2.61
D14: E 2.07; K 2.67; I 2.6; A 2.1; H 2.19; W 1.94; M 2.01; L 1.94; P 2.37; Y 1.9

Variants of: B2
Assay: as above
Conditions: c terminus: a fixed tail appended

Protein stability index: each site, then its substitutions
N10: H 2.57; E 2.91
